{
  "source": "paper PMC1635294",
  "binders": {"B1": {"name": "wild-type stem-loop competitor (structured_RNA)", "RNA": "GGAGCUCAACAAAAGGCCCUUUUCAGGGCCACCC"}, "B2": {"name": "mutated stem-loop competitor (*) (structured_RNA)", "RNA": "GGAGCUCAACAAAACCGGAAAGCCUUCCGGACCC"}},
  "key": {"[1]": {"target": "T1, SLBP (HBP), His-tagged (human, UniProt Q14493 1-270)", "test": "competition"}, "[2]": {"target": "T1, SLBP (HBP), His-tagged", "test": "competition", "remark": "listed apart in the source"}},
  "note": "Where two headings read alike, the source gives them in different places.",
  "data": [
    {"binder": "B1", "values": [
      {"measurement": "binding result", "setting": "[1]", "value": "binds"}
    ]},
    {"binder": "B2", "values": [
      {"measurement": "binding result", "setting": "[2]", "value": "no binding"}
    ]}
  ]
}
